Results on one molecule are retold here after article PMC8104893 (Science Advances, 2021).

This experiment deals with T1, GST-XBAT31 (Arabidopsis, UniProt Q94B55 1-456).
T1 sequence (looked up): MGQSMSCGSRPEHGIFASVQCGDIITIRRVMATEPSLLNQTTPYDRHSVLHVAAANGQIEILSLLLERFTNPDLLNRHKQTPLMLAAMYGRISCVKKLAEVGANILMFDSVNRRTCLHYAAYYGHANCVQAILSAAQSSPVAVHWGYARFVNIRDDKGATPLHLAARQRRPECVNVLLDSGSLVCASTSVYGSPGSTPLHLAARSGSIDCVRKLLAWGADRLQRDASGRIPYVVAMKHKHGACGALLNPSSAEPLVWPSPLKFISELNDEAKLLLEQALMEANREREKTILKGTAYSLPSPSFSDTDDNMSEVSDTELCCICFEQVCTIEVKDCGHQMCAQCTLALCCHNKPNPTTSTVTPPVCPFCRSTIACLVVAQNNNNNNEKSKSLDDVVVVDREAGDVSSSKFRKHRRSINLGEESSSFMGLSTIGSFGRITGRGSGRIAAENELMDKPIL
In words: pull-down.

B1: MBP-BBX18 (natural protein, Arabidopsis, UniProt Q9SJU5 1-172, looked up)
chain: MRILCDACESAAAIVFCAADEAALCCSCDEKVHKCNKLASRHLRVGLADPSNAPSCDICENAPAFFYCEIDGSSLCLQCDMVVHVGGKRTHRRFLLLRQRIEFPGDKPNHADQLGLRCQKASSGRGQESNGNGDHDHNMIDLNSNPQRVHEPGSHNQEEGIDVNNANNHEHE
For B1, the binding result is “binds”.
